Our source for the protein production values is a protein production outcome set (Wang et al. 2014).

The nature of this series: label from the status in PepcDB records.
For the sequence “MRSGFRRCCPAIQRFKKVQRILLIVLFLNLAVAFAKIIYGTLTSTLSMTADGYHSLFDGVSNIVGLVGSFIAARPPDKEHPYGHQKYETIASIFIALLLLYVGVEIFRHALDRFLIRSVPEVTAISFLVIIGTMCINYLVTRYEYRQGLALRSQVLIADSLHTKSDIYVSLSVILSLAAVKLGFPLLDPLIAVLISFLIFRAGFRIMKESSKVLLDMSRLEEDEICNLVLGVEGVLGCHKIRTRGGMGDIRIDMHVLVQADLTLEEAHLISHRVSKMLKAEYNDVTDVVVHLEPALPQGSYSKKTT”, the protein production entry is on record as “failed”.
For “MFVQSALHQLKVAVDTSIQMLDQYTEIDLKIAPIQSKRSLFEMYAHLSLICHADLLILNGSTEKELHTFYKEQTPETIAQMQKTMIQGYDLLSKTFLSYSNEQLAEMKTAYWGISYSRFEWLLEIVAHFYHHRGQIHILLCEHMKDPNIPLFQ”, the protein production entry is “not failed”.
In the case of “MKKIAVFADVQNLYYTVRQAYGCHFNYAALWADISKRGEIVHAFAYAIDRGDSKQQQFQQILRNLGFTVRLKPYIQRSDGSAKGEWDVGITIDIMDFAPQVDEVVLASGDGDFDMLLDRVISKHGVEAVAYGVPGLTANSLIRAASRYVPIEGALL”, the protein production result was “not failed”.
Turning to “MSRDRLYTWAGLWRSPSSSWEALRLEDDQAESQLRAPDERSGLPYQLDYRLRWDADWHLREAVFHVESETGVRKLHLLADGRGHWQDGDGEALPAFDGCLDIDIWPSPFTNTFPIRRLGLADGQRAEIRALYIEAPALEPRSMRQAYTRLDASHYLYENLEGSAFKAVLLVDEQGLVIDYPGLFQRL”, the protein production result was “not failed”.
Take “MIQLRPCPKSYTRDQDKATTPAETVRRVRERLASLDISILAETRRVDVGRLGIPVFLSVCGADARAVMPTRKQMGKGASLEQAQASALMELMERYSFFTFWRDMPGMVEATWSEARNRFGDALIPVDEILHSVHDTLSPDDAVRALDLWRWKFFPATDITHGREVWLPLDWFKKLGEFNGSSAGNTEEESILQGSCELVERHVCCLIDRTQPELPTIDPASLDDPVLLELAAAFERNGIRLVLKDFSMGMPVPTVGAIAWDPATFPERSEIVYTAGTSSSPVKAAIRAVTEVAQLAGDFCTGACYEASGLSKYESLDDIAWLVAGPVVALDTLPSVETDDIRDELAALCDGLAATGHTLYSVSTMNPDVGVNTHYNIVPGFHFRERDRNASLGLFIGRILSEEADAGTALAGLSVLEELYPGAHFLPFFKGMLALRAESHHEAISFFEQAEPLQPEADSRGLAAFYGAYVRTLLTDWQGALPGLDRAVTECPEMKEYFNLRGVCHFKLGDYAQAAQNFAQVLHIDKGAVVDLANLGLCHKFMGDTEKAEELLSAALEIDPGLDFARRHLDEMRQP”: the protein production entry is recorded as “failed”.
As for “MSREKIEANREKILNGPIVPTLLVLAYPIIINQLVHVLYNLTDTFWLGKLGRIELSAPGTAWPLVWFLMSIGSGFVVAGFAFVSQYIGAGDYEKANRYAGALYSLLLIFATGMSIFGIVLAPYFLRFMKVSETIFPYALTYTRIIFAGIPFSFTLFAFNFLLRAIGDTKTPVKINIGTIILNIILDPFFIFGWGPFPRLGVAGAAIATMLSNSVGSLIGGYLLFTGKVGIHLTLENLKPDLKFYSRIFRVGLPSSIGDSTSALGFVVLTRVIFTVGRIYGEAHGIKGYEDVAFPTYSITNRLTNFMFAFSDGISMAMGTMVGQNIGARKYERAKEIAEKAMLINFTILSIGTLLFAIFRVPIFKFFVNDPMVIAESKKVVMYFSASLPFFGIFSAVNQVFNSAGHTKKSMVLGIIRLWILRIPLSYWLGVAMKDTAGMWLGMGLSNVIGALIGLAWFLKGSWLRGVIEEHH”, the entry is “failed”; as for “MSPLILMITAGAGIALLLFLVLKYKFQPFVALMLVSILVALVAGVKPAELVATIEGGMGKTLGHIAIIIALGAMIGRIIELSGGAEALAKTLIERFGNRRTPLALTMAGFIIGVPVFFEVGVIILMPLAYGVARSARKPLLVFALPMCAALLTVHAFLPPHPGAVAAASQLGADLGRVLMFGLPLTALLCYVGYRVAGRMTRRNYPMTDDIRAEVYGPHVTNEDLAAWNNGSEQPASPQAVAAVAHMGLEESTGSLAAKLPPAPPPGFGLIVSLILLPIVLILLGTLATSLLPLESTLRGVLTVLGAPLVALLLDTLLCAWLLGSRRGWSRSQVSDVIGSALPGVAMVILIAGAGGVFGKVLVDTGIGAVVSDLLRTTGLPVLALGFLLTMLLRAVQGSTTVALVTTAGIIAPLIATLNLSPNHMALLCLAMGGGGLAMSHINDAGYWIFTKLAGLNVADGLRTWTVITTLLGTLGFCITLLIWPFV”, “failed”.
With “MPNCEKEALVVAAAMEKGTIHPIGRYLLPQYWEGPPLCFEYFPGRGLTATVSCIESVTEGNKLRKSSLGSVEFITSLFESQDQSREIKNAVNSSLYGNDFVHALLSLYQKVTLIHLEDQPHQPFYRPISLNLRHVMIKINTFIQFFFRMNQISNHEIGSFSAFATQFFSFLTHYSILPNPINSLNPTLRPLVPCTIHELAPPPAPPPFPSCKSAM”, the protein production entry is given as “failed”.
With “MYNSRESILSNPVQSAIVSISFFSVVAIIIIAIYPEILSPQRKMERIDDFVVIIATLTFLFIGLSLINSFGTDNMEYTYEALNNFFQGKNPYEMVYGPHTVQPTYTLSGGVASNFIYPPFSFIVYIPIYLLIKAFNLPGYVLNAENVIFAVILGLLLYKIGKEKDDPFALFPVIFLYIITAVSIPPFYGVPIVIASTFLALSYVKKNYLGGISLALAISFSQLSWLAFPFLLIYRIRSDNVGKQFLRSSYFLSFLITLSIINIPFLAWNPVRFIGNIITLNTQLIPVGQIGLTVISYSGLYPMEPWFFTIVFGVVAIFLTYLYYQLFDYLKEIIWLFPLIISWFLWRTLTEYFFMWIPLIFTSLFRTQYKLPTIKLNFKKKIVLPLLIIFVFLASLSVYAHESYVASNPLKIDEVYTLQNTPPYTALIIKVQNTKNEPVNITLVRVSIPNNLNMVWNSTETVIPPNSSALVFAYASNSLEAINSTPFTVQVYSEYYFATYTVNSTQ” the entry was “failed”; with “KLIGITGMPGSGKSAITKLAEKYKIVVVSMGDVVRYETLKQGMPLNPENVGNTAVKLREIYGKEAIAVPCLNYVNEKYNNEDFVIIEGIRSIYEVNYIKKHAELDIIAIHSSPKTRFERLSGRNREDDSNDWNTFVERDERELNFSIGRVISLADYMVVNEGNYMDFVNDLENTFKKIINV”, “failed”.
As for “AATDIHVHFRTPGETEKEDFGSGSLSAIYGGTTYVMDMPNNRFPITDYNAFGDKLGSIDSTSFADFSLYSMETGKNAMLLDRRSIGLKVYLGGSTNSTGTEVIEEGDIRKINEMNYPVVFHGESERCLKTHQMEEKNLRDHNLARPIDCEIEAAKYVSGLDIKTKIMAHVSSPDVTGNFLREVTPHHLLLNDEMPLGSFGKVNPPLRDSRTQKRLLDDYISGKFDILSSDHAPHTEDDKREFEFAKSGIIGVETRVPLFLALAQKKIVPLDVLYRTAIENPPSIFGIKKGKIEIGYDADFMVIDFTSMKRINDNRLHSKFPVSPFNGMDAI”, the entry is “failed”; as for “MAVLNLFHIFATTVDSTAVEKNLLIMKFYNREKEIAELKRVQELAFGQNSRMIVVTGRRRIGKTSLIKQALKGTPTVYFFIGRKAESILVADFIKIVRETLSIFIPDGISNFTTLIQYLFEIGKTRSFNIVIDEFQEFYNIRPDVFSDMQNLWDEYRQETKINLVISGSVYSLMQKIFTDHGEPLFGRADNILCLRPFNTKVLKQIMEDFAPGYSNDDLLALYTLTGGIPKYVELFCDNQALSVDRIYDFVFSENSLFIDEGRNLLITEFGKNYGIYFSILLEIANGHYTQGEIESALGGISIGGHLSKLENVYNLITRERPIFAKPGTKKNVRYIIGDNFLNFWFKYIERNRSYIELQNFEDLRQLAKADYQTYSGRVLEKYFKQKLAEEGGFKEIGSWWETKSSANKERLNSFEIDIVALKSSGKKALIAEVKRMPENNYVHSTFMEKVEHLKHKEMAKYDIETRVLGLEDM”, “failed”; as for “MAGAMRKMAVYLGLVEDDGYDGRGFDPDDDFEPELDPEPERDRRRHEPPHQSHQALHPQRDESVRVVQPPMQRDPVPHSASLPAESVRPARIAPVASITQERQSLEKNAPVIMPKVVSEREPYRITTLHPRTYNEARTIGEHFREGTPVIMNLTEMDDTDAKRLVDFAAGLVFGLHGSIERVTQKVFLLSPANVDVTAEDKARIAEGGFFNQSLEHHHHHH”, “not failed”.
As for “LKRDFIILGNGPRLQNSTYQCKHCDSKLQSTAELTSHLNIHNEEFQKRAKRQERRKQLLSKQKYADGAFADFKQE”, the entry is “not failed”; as for “MEGQTHDAQNNVPEHDNPLMNVKNPSSNLFSKKDAQCLSVLCNGKWLQIVRSSPKVSCEASTCPSHILTKVGENYVAESEKMHKKVISFSSKTFSQGTLQFTMRANGTPHFVFKLENQKDVYVASLSSNVQDQNSYMIHLQRGESSASSSHLVGRINVSTLFSEKVLEREFVLFSSNGENLKIPRTRKNRGLSKKVVHAVKNERRTARLSRTSFIPDLGSWDEQFQAQNYDCLLKNKLPTNLETLAVVVKQETIEDEIGGWGLKFLKRSPMFQRSNDASETETSTSSISMNVVIPSGIHGGPEDGPSSLIERWKSQGNCDCGGWDLCCSLTLLKGQPRKDQYFELFIEVKLSFISSNTSIL”, “failed”; as for “MTQKEISIIHPRPSSIVAALYTLRDLNVDVAILHGPPGCSFKHARLLEEDGIHVVTTGLDENGFVFGGHDKLVQVINKSIELFNPKILGVVGTCASMIIGEEMHEAVLEANPDIPVIEVEVHAGYHNNTKGVIFALESALDAGIIDHKEFERQEYLLQKATEVEKKFGAASKEYLAPSRGDVKYKVAKRLVELLKEGKKGLVIMNAKKETGYMFADITLAVNEVAEALGKKENLVNMANIDPELGLPRVRQHAEYIMRDFKAHGVEIHEIIGGMDEYPVAGEKVSELIKEKYSDYDFAVITGVPHAVPMENIGHMELISITNGPRQVLPLKEMGHEHVMVEIDLHPKTLGVSQIVESEFGATLREVAKEA”, “failed”.
Regarding “MGTLGRAIYTVGNWIRGTGQALDRVGSLLQGSHRIEEHLSRHRTLMNVFDKSPLVDKDVFVAPSASVIGDVQIGKGSSIWYGCVLRGDVNNISVGSGTNIQDNTLVHVAKTNISGKVLPTLIGDNVTVGHSAVIHGCTVEDDAFVGMGATLLDGVVVEKHAMVAAGSLVKQNTRIPSGEVWGGNPAKFMRKLTDEEIVYISQSAKNYINLAQIHASENSKSFEQIEVERALRKKYARKDEDYDSMLGITRETPPELILPDNVLPGGKPVAKVPSTQYF”, the protein production entry is on record as “failed”.
With “MKIKRLYLLGAWLLLGVSVSAQITSIQPQPQQVLSQARNLSLPDTYLIVGDTEANTHAVSALKTLLAGKHSDKNGFRIYIGEKGDKAIRKFARQIPNHKEGYYLAINDKEIVLAGQDGRGTFYALQTLAQLLNDNQLPVVEIKDYPSVRFRGVVEGFYGTPWSHEARLRQLKFYGENKMNTYIYGPKDDPYHSSPNWRLPYPEKEALQLQELVKVANENEVDFVWAIHPGQDIKWNQEDRDLLLAKFEKMYDLGVRSFAVFFDDISGEGTNPNKQAELLNYIDEKFVKVKPDVTPLVMCPTEYNKSWSNPKGNYLTTLGEKLNPSIQIMWTGDRVISDITKDGIAWINARIKRPAYIWWNFPVSDYVRDHLLLGPVYGNDTQIADQMSGFVTNPMEHAEASKIAIYSVAGYAWNPEKYNSEQTWKDAIRTILPSAADELEFFAAHNSDLGPNGHKYRRDESVELQPLSQRFLDSYLKNGSYTEADFNALEATFGKMVESGDVLMTNTGNRPLIVEMMPWLRQFKLLGETGQEVLAMAKAYKEGDNSLFIRKYRHVKALQQQMFQVDQTYNQNPYQPGVKTATKVIKPLIDQTFTTVTERYNKEHGTQLDAATDYMPHKLVSDVEQLRNQPLQIKTNRVLVSPANEVIKWGAGCTLTIELDQAYPGENLDIDFGKPDVAAWGQLEISADGKEWQKVDFKQEKNRITLNLKQTPVKAVRFSNVGNAEQEVYLRRFMITLDK”, the protein production entry is “failed”.
On to “MTAIDGQGKDQVIFVTKEEHETPSTVKQEEEDTNEDPKGKGLILPTGEINWDCPCLGGMASGVCGEQFKSAFTCFHFSQEEVKGSDCLEQFISMQECFHQHPELFPQDNNDLQTADPDQEHSSSISDFTTNKESDSLPTETDEIPTQLPVVS”, for which the protein production entry was “not failed”.
